Substrate in this data set: CC(C)=C[C@@H]1[C@@H](C(=O)SCCNC(=O)CCNC(=O)[C@H](O)C(C)(C)COP(=O)(O)OP(=O)(O)OC[C@H]2O[C@@H](n3cnc4c(N)ncnc43)[C@H](O)[C@@H]2OP(=O)(O)O)C1(C)C
As to the kind of experiment: purified protein. The following applies: 1 mM (S)-pyrethrolone, 50 mM Tris-HCl pH 7.5, 25 °C, 10 min.

B1: TcGLIP (Tanacetum cinerariifolium) (protein)
chain: SQQAAALFIFGDSVFDPGNNNHINTHVNFKANFWPYGQSYFSSPTGRFSDGRIIPDFIAEYASLPIIPAYLEPNNDFTHGANFASAGAGALIASHAGLAVGLQTQLRYFGDLVDHYRQNLGDIKSRQLLSDAVYLFSCGGNDYQSPYYPYTQEQYVDIVIGNMTNVIKGIYEKGGRKFGVVNVPLIGCWPGMRAKQPGNTCNTEVDELTRLHNQAFAKRLEQLEKQLEGFVYAKFDLSTAILNRMKNPSKYGFKEGESACCGSGPFGGNYDCGRIKEFGLCDNATEYFFFDPFHPNELASRQFAEMFWDGDSMVTQPYNLKALFEGKPSTKYLPNDEL
A word on the Km: it is the substrate concentration at which the rate is half of its maximum. What is called Vmax is the rate approached at saturating substrate. For B1, the Michaelis constant (Km) was found to be 520 ± 95 µM, the maximal velocity (Vmax) was determined as 0.14 µmol/min/mg and the Vmax/Km came to 269 µL/min/mg.
